In the Human Domainome abundance scans (Beltran et al. 2025):
± gives the uncertainty stated by the source.

B1: Activity-dependent neuroprotector homeobox protein, residues 770 to 810; numbered along this chain, Q9H2P0 (parent)
chain: FLTKYFNKQPYPTRREIEKLAASLWLWKSDIASHFSNKRKK

Variants of: B1
Experiment: abundance fitness (aPCA) (normalised: wild type 0, dead -1); higher = more abundant; growth selection in yeast, the domain comes from the species named
Details: Homo sapiens

Variant | abundance fitness
FLTKYFNKQPYPTRREAEKLAASLWLWKSDIASHFSNKRKK | -0.127 ± 0.059
FLTKYFNKQPYPTRREGEKLAASLWLWKSDIASHFSNKRKK | -0.158 ± 0.055
FLTKYFNKQPYPTRRENEKLAASLWLWKSDIASHFSNKRKK | -0.687 ± 0.14
FLTKYFNKQPYPTRREPEKLAASLWLWKSDIASHFSNKRKK | -0.296 ± 0.066
FLTKYFNKQPYPTRREFEKLAASLWLWKSDIASHFSNKRKK | -0.205 ± 0.079
FLTKYFNKQPYPTRREQEKLAASLWLWKSDIASHFSNKRKK | -0.89 ± 0.14
FLTKYFNKQPYPTRREWEKLAASLWLWKSDIASHFSNKRKK | 0.18 ± 0.066
FLTKYFNKQPYPTRREDEKLAASLWLWKSDIASHFSNKRKK | -0.604 ± 0.2
FLTKYFNKQPYPTRREYEKLAASLWLWKSDIASHFSNKRKK | -0.1 ± 0.086
FLTKYFNKQPYPTRREMEKLAASLWLWKSDIASHFSNKRKK | 0.239 ± 0.087
FLTKYFNKQPYPTRRESEKLAASLWLWKSDIASHFSNKRKK | -0.455 ± 0.061
FLTKYFNKQPYPTRRECEKLAASLWLWKSDIASHFSNKRKK | -0.024 ± 0.072
FLTKYFNKQPYPTRREVEKLAASLWLWKSDIASHFSNKRKK | -0.025 ± 0.053
FLTKYFNKQPYPTRREREKLAASLWLWKSDIASHFSNKRKK | -0.294 ± 0.056
FLTKYFNKQPYPTRREKEKLAASLWLWKSDIASHFSNKRKK | -0.404 ± 0.09
FLTKYFNKQPYPTRRELEKLAASLWLWKSDIASHFSNKRKK | -0.019 ± 0.068
FLTKYFNKQPYPTRREEEKLAASLWLWKSDIASHFSNKRKK | -0.61 ± 0.11
FLTKYFNKQPYPTRREHEKLAASLWLWKSDIASHFSNKRKK | -0.237 ± 0.06
FLTKYFNKQPYPTRREIVKLAASLWLWKSDIASHFSNKRKK | -0.509 ± 0.063
FLTKYFNKQPYPTRREIIKLAASLWLWKSDIASHFSNKRKK | -0.749 ± 0.49
FLTKYFNKQPYPTRREIQKLAASLWLWKSDIASHFSNKRKK | 0.061 ± 0.069

Variant | abundance fitness
FLTKYFNKQPYPTRREIKKLAASLWLWKSDIASHFSNKRKK | 0.172 ± 0.062
FLTKYFNKQPYPTRREIMKLAASLWLWKSDIASHFSNKRKK | 0.075 ± 0.41
FLTKYFNKQPYPTRREICKLAASLWLWKSDIASHFSNKRKK | -0.232 ± 0.069
FLTKYFNKQPYPTRREIHKLAASLWLWKSDIASHFSNKRKK | -0.257 ± 0.12
FLTKYFNKQPYPTRREIAKLAASLWLWKSDIASHFSNKRKK | -0.025 ± 0.047
FLTKYFNKQPYPTRREIPKLAASLWLWKSDIASHFSNKRKK | -0.189 ± 0.068
FLTKYFNKQPYPTRREIRKLAASLWLWKSDIASHFSNKRKK | 0.066 ± 0.05
FLTKYFNKQPYPTRREIYKLAASLWLWKSDIASHFSNKRKK | -0.378 ± 0.14
FLTKYFNKQPYPTRREIWKLAASLWLWKSDIASHFSNKRKK | -0.356 ± 0.11
FLTKYFNKQPYPTRREITKLAASLWLWKSDIASHFSNKRKK | -0.176 ± 0.08
FLTKYFNKQPYPTRREINKLAASLWLWKSDIASHFSNKRKK | -0.213 ± 0.083
FLTKYFNKQPYPTRREIDKLAASLWLWKSDIASHFSNKRKK | -0.109 ± 0.15
FLTKYFNKQPYPTRREIEKLCASLWLWKSDIASHFSNKRKK | -0.099 ± 0.074
FLTKYFNKQPYPTRREIEKLIASLWLWKSDIASHFSNKRKK | -0.169 ± 0.099
FLTKYFNKQPYPTRREIEKLHASLWLWKSDIASHFSNKRKK | -0.413 ± 0.075
FLTKYFNKQPYPTRREIEKLWASLWLWKSDIASHFSNKRKK | 0.008 ± 0.053
FLTKYFNKQPYPTRREIEKLYASLWLWKSDIASHFSNKRKK | -0.177 ± 0.088
FLTKYFNKQPYPTRREIEKLSASLWLWKSDIASHFSNKRKK | -0.012 ± 0.072
FLTKYFNKQPYPTRREIEKLRASLWLWKSDIASHFSNKRKK | -0.021 ± 0.063
FLTKYFNKQPYPTRREIEKLEASLWLWKSDIASHFSNKRKK | -0.39 ± 0.12
FLTKYFNKQPYPTRREIEKLPASLWLWKSDIASHFSNKRKK | -0.3 ± 0.086

Variant | abundance fitness
FLTKYFNKQPYPTRREIEKLKASLWLWKSDIASHFSNKRKK | 0.138 ± 0.058
FLTKYFNKQPYPTRREIEKLGASLWLWKSDIASHFSNKRKK | 0.202 ± 0.059
FLTKYFNKQPYPTRREIEKLLASLWLWKSDIASHFSNKRKK | -0.082 ± 0.06
FLTKYFNKQPYPTRREIEKLMASLWLWKSDIASHFSNKRKK | 0.083 ± 0.12
FLTKYFNKQPYPTRREIEKLVASLWLWKSDIASHFSNKRKK | -0.128 ± 0.087
FLTKYFNKQPYPTRREIEKLQASLWLWKSDIASHFSNKRKK | -0.328 ± 0.17
FLTKYFNKQPYPTRREIEKKAASLWLWKSDIASHFSNKRKK | 0.036 ± 0.14
FLTKYFNKQPYPTRREIEKWAASLWLWKSDIASHFSNKRKK | 0.257 ± 0.085
FLTKYFNKQPYPTRREIEKGAASLWLWKSDIASHFSNKRKK | -0.181 ± 0.069
FLTKYFNKQPYPTRREIEKYAASLWLWKSDIASHFSNKRKK | 0.064 ± 0.12
FLTKYFNKQPYPTRREIEKPAASLWLWKSDIASHFSNKRKK | -0.124 ± 0.057
FLTKYFNKQPYPTRREIEKQAASLWLWKSDIASHFSNKRKK | -0.462 ± 0.096
FLTKYFNKQPYPTRREIEKCAASLWLWKSDIASHFSNKRKK | 0.124 ± 0.094
FLTKYFNKQPYPTRREIEKNAASLWLWKSDIASHFSNKRKK | -0.152 ± 0.15
FLTKYFNKQPYPTRREIEKRAASLWLWKSDIASHFSNKRKK | -0.144 ± 0.064
FLTKYFNKQPYPTRREIEKHAASLWLWKSDIASHFSNKRKK | -0.269 ± 0.085
FLTKYFNKQPYPTRREIEKEAASLWLWKSDIASHFSNKRKK | -1.02 ± 0.25
FLTKYFNKQPYPTRREIEKTAASLWLWKSDIASHFSNKRKK | -0.106 ± 0.076
FLTKYFNKQPYPTRREIEKDAASLWLWKSDIASHFSNKRKK | -0.322 ± 0.11
